Consider 72 sequences from the supplement of paper PMC10567573.

± gives the standard deviation.

The data set is described as follows: protein stability index of a GFP-peptide fusion (GPS, HEK-293T) (PSI 1-6); higher = more stable.
Where [1] appears, read: treatment: DMSO, c terminus: a fixed tail appended.
Where [2] appears, read: treatment: MLN4924 1 uM, 8 h, c terminus: a fixed tail appended.
Where [3] appears, read: treatment: DMSO, c terminus: native.
[4] abbreviates: treatment: MLN4924 1 uM, 8 h, c terminus: native.
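Further: 24-mer peptide tiles fused after GFP, lentivirally expressed, FACS-sorted into six equal bins by GFP/DsRed ratio, decoded by Illumina sequencing, PSI is the read-weighted mean bin number.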

As for QIEEVFISEEIQMSTKESDFLCLL [MIA2], the protein stability index by setting is: under setting [1], 2.51 ± 0.42; under setting [2], 2.49 ± 0.37.
Taken in the same sequence, the figures for QKVVVTTPLHRDKTPLHQKHAAFV [MYBL2] were 3 ± 0.2 and 3.14 ± 0.32.
As to QLAAVHLSKSRTDYQPTQAGRLMR [RNF180], the protein stability index under setting [1] is 3.5 ± 0.18 and the protein stability index under setting [2] came to 3.52 ± 0.26.
On the same counts, the results for QLAEENERLKQEIERLTREVEATR [DDIT3] are 5.4 ± 0.26 and 5.51 ± 0.32.
Regarding QLAQDDIDGIQAIYGRSQNPVQPI [MMP1], the protein stability index by setting is: under setting [1], 3.69 ± 0.1; under setting [2], 3.9 ± 0.14.
Taken in the same sequence, the figures for QLEQVIESQKANQCAVLIYTSGTT [ACSBG2] were 2.52 ± 0.32 and 2.51 ± 0.25.
Taken in the same sequence, the figures for QLKLDHYRAALRSCSLVLEHQPDN [FKBP8] were 2.93 ± 0.18 and 2.98 ± 0.27.
Turning to QLLCPWAPLSGPQALMLPPGSFWG [VENTX], the protein stability index is, setting by setting: under setting [1], 2.41 ± 0.62; under setting [2], 1.73 ± 0.35.
Regarding QLPPASRCVLVFEQVRFLMKSYSF [SOAT2], the protein stability index stood at 2.71 ± 0.67 under setting [1] and 1.95 ± 0.1 under setting [2].
Taken in the same sequence, the figures for QLQSLCRGLGLGGRRLKSPQAPDP [FANCE] were 3.02 ± 1 and 3.16 ± 0.74.
For QLQVPTLRQQCAQVLRNNPDALSD [ELOA2], the protein stability index stood at 4.24 ± 0.36 under setting [1] and 4.42 ± 0.13 under setting [2].
In the case of QLVVMHPTPQVDELDILPIHPPSG [BTBD10], the protein stability index is, setting by setting: under setting [1], 3.74 ± 0.1; under setting [2], 3.75 ± 0.11.
For QQCMLEILDTAGTEQFTAMRDLYM [RAP1B], the protein stability index is 2.53 ± 0.25 under setting [1] and 2.6 ± 0.2 under setting [2].
The sequence QQQQAMSFAILRIIRLVRVFRIFK [KCNA4] displayed a protein stability index under setting [1] of 2.71 ± 0.24 and a protein stability index under setting [2] of 3.01 ± 0.26.
Take QQRSKDLESRQRSLEQANRSLQLR [TFE3]: the protein stability index by setting is: under setting [1], 4.76 ± 0.062; under setting [2], 4.655 ± 0.041.
QQYAAQQYPGNYEQQQILIRQLQE [ACBD3] displayed a protein stability index under setting [1] of 4.07 ± 0.19 and a protein stability index under setting [2] of 4.06 ± 0.22.
Regarding QSFISWTGDGWEFKLADPDEVARR [ETS2], the protein stability index by setting is: under setting [1], 3.58 ± 0.1; under setting [2], 3.76 ± 0.19.
In turn, QSPVSPQPPAITQVHRQGERRREL [SMTNL2] came in with a protein stability index under setting [1] of 5.26 ± 0.14 and a protein stability index under setting [2] of 5.12 ± 0.42.
Taken in the same sequence, the figures for QSRANGVKYPELVLEHSLDREEEA [PCDHGA10] were 5.29 ± 0.12 and 5.31 ± 0.15.
Regarding QSTVKCLTVLQRLDVWLSGGNDLC [WDR41], the protein stability index was 2.6 ± 0.63 under setting [1] and 2.32 ± 0.4 under setting [2].
QVANSAFVERVRKRGFEVVYMTEP [HSP90AB1] had a protein stability index under setting [1] of 2.49 ± 0.4 and a protein stability index under setting [2] of 2.64 ± 0.24.
On the same counts, the results for QVEGLTVQYLGQAPELLGGAEPGT [ADAMTS4] are 4.53 ± 0.51 and 4.87 ± 0.4.
For the sequence QVGAKGDTANEIGQVLHFENVKDV [SERPINB5], the protein stability index came out at 4.94 ± 0.37 under setting [1] and 5.19 ± 0.24 under setting [2].
In the case of QWNAGEKKLTGGANWQPKVAPATW [SNAP91], the protein stability index came to 2.98 ± 0.33 under setting [1] and 3.07 ± 0.14 under setting [2].
For QYFTNRLDMSQNVSLVTAELSKDA [SLC29A1], the protein stability index amounted to 4.2 ± 0.21 under setting [1] and 4.25 ± 0.24 under setting [2].
Take QYMNEGELRVLADTYDSVYLHPNS [HDAC6]: the protein stability index came to 2.83 ± 0.21 under setting [1] and 3.33 ± 0.52 under setting [2].
Taken in the same sequence, the figures for RADAHLGSSSVALPKEASDGTGAS [TOR1AIP2] were 5.5 ± 0.24 and 5.33 ± 0.12.
Regarding RAEKEACQREKELPAAVHPFHFV [ZBED2], the protein stability index by setting is: under setting [3], 4.87 ± 0.39; under setting [4], 4.8 ± 0.34.
With RAGEQRKRSQSMKSYPSSELRNMC [CLCN6], the protein stability index by setting is: under setting [1], 4.29 ± 0.078; under setting [2], 4.37 ± 0.21.
Taken in the same sequence, the figures for RALEEANTELEVKIRDWYQRQAPG [KRT17] were 3.37 ± 0.16 and 3.58 ± 0.4.
RDFLLDEANGLLPDDKLTLFCEVS [SPOPL]: the protein stability index amounted to 3.03 ± 0.2 under setting [1] and 3.08 ± 0.34 under setting [2].
Taken in the same sequence, the figures for RDPPRPGPSRPAEKPPRPEAKSAQ [GCH1] were 5.33 ± 0.35 and 5.1 ± 0.045.
Turning to RDTFYKEQLERIERKNAEMYKLSS [CHCHD6], the protein stability index is, setting by setting: under setting [1], 3.5 ± 0.12; under setting [2], 3.79 ± 0.43.
Sequence REEQCAAYNHRTDLFKSFPGPMDW [ADAMTS4] came in with a protein stability index under setting [1] of 3.06 ± 0.45 and a protein stability index under setting [2] of 3.1 ± 0.3.
Take RELLEFTHMYLQSDDEMELEETEP [P3H4]: the protein stability index is, setting by setting: under setting [1], 4.98 ± 0.18; under setting [2], 5.15 ± 0.22.
With RFEQEAVAVDSNLRVRELQRKVDG [CCDC89], the protein stability index under setting [1] came to 4.98 ± 0.28 and the protein stability index under setting [2] is 4.9 ± 0.29.
With RFPYLCQKNGGGAYLVPYLVLLII [SLC6A17], the protein stability index under setting [1] was 2.64 ± 1.1 and the protein stability index under setting [2] was found to be 2.49 ± 0.94.
In the case of RFYLLLFSFLGLLALGVSLLCNAI [PTGFR], the protein stability index amounted to 2.4 ± 0.26 under setting [1] and 2.57 ± 0.24 under setting [2].
Consider RGDPAHAGLAELGHRLAQKLQGLE [PBXIP1], for which the protein stability index under setting [1] worked out at 3.04 ± 0.34 and the protein stability index under setting [2] was 3.29 ± 0.32.
On to RGDRGPGPALAGEPAGSLRELGVW [C2CD2L], for which the protein stability index amounted to 3.25 ± 0.14 under setting [1] and 3.55 ± 0.27 under setting [2].
In the case of RGSVARPTQGPETPRSPEGTTEAA [PXN], the protein stability index was found to be 5.39 ± 0.3 under setting [1] and 5.31 ± 0.17 under setting [2].
Regarding RHTLQKLTCEFNNNHESLDEELHL [FBXO39], the protein stability index is, setting by setting: under setting [1], 4.38 ± 0.21; under setting [2], 4.56 ± 0.3.
For RISFCADDKTDKRIFTFICKDSES [GULP1], the protein stability index runs as follows: under setting [1], 3.52 ± 0.47; under setting [2], 3.47 ± 0.96.
As for RKKTLVPGPPGSSRPVKGQVVTVH [FKBP8], the protein stability index was determined as 3.53 ± 0.31 under setting [1] and 3.46 ± 0.2 under setting [2].
As to RKRKKATEAIDSLRKSKRLRNRK [FBXO28], the protein stability index was determined as 4.97 ± 0.1 under setting [3] and 5.19 ± 0.12 under setting [4].
On to RLEQEIATYRRLLEGEDAHLSSQQ [KRT16], for which the protein stability index came out at 3.95 ± 0.097 under setting [1] and 4.21 ± 0.18 under setting [2].
RLLLAESGLSFITFICYVASSASA [CMTM3]: the protein stability index runs as follows: under setting [1], 2.53 ± 0.94; under setting [2], 2.43 ± 0.77.
With RLSGLSSVGHNWRKRMGTRRGRHE [C22orf15], the protein stability index was found to be 4.08 ± 0.23 under setting [1] and 4.14 ± 0.19 under setting [2].
Take RLVYKFGKNSSGWKEEEVLQSRN [ELF3]: the protein stability index worked out at 2.76 ± 0.35 under setting [3] and 3.21 ± 0.85 under setting [4].
As for RMLSKENKILQVFWEEHKASLGRE [CBY2], the protein stability index stood at 2.96 ± 0.39 under setting [1] and 3.35 ± 0.074 under setting [2].
On to RNGGSLADAISENYRIMSYFKEAE [WEE1], for which the protein stability index was 3.08 ± 0.36 under setting [1] and 3.2 ± 0.28 under setting [2].
Consider RPEITSRAINLLFDIARIERCNQL [ZER1], for which the protein stability index amounted to 2.47 ± 0.55 under setting [1] and 2.35 ± 0.59 under setting [2].
Regarding RPQGPQLRQQQHKQNKQVLGYCLL [DNAJC4], the protein stability index turned out to be 2.52 ± 0.22 under setting [1] and 2.38 ± 0.23 under setting [2].
For RPQLPQVLQHVRLPLLSPKFLVGT [KLHL20], the protein stability index under setting [1] turned out to be 2.8 ± 0.12 and the protein stability index under setting [2] came out at 2.58 ± 0.26.
For the sequence RQAIFPDTWTLTEEHGLQQERPRP [PXN], the protein stability index was 4.43 ± 0.25 under setting [1] and 4.25 ± 0.28 under setting [2].
For the sequence RQRLQDISSLPLPQSLKNYLQYQ [SPSB4], the protein stability index came out at 3.65 ± 0.074 under setting [3] and 3.65 ± 0.31 under setting [4].
Consider RQWTVSDWGPCSGSCGQGRTIRHV [ADAMTSL2], for which the protein stability index by setting is: under setting [1], 2.15 ± 0.23; under setting [2], 2.826 ± 0.025.
RRCRRCVCALCPVLGAHRGHPVGL [TRIM14]: the protein stability index under setting [1] was 2.54 ± 0.33 and the protein stability index under setting [2] came out at 2.59 ± 0.38.
RRFGAVACGVAMELYVFGGVRSRE [GAN]: the protein stability index is, setting by setting: under setting [1], 3.04 ± 0.79; under setting [2], 2.26 ± 0.15.
As to RRLLVKDPKRRMTIAQSLEHSWIK [DAPK3], the protein stability index worked out at 2.67 ± 0.25 under setting [1] and 2.82 ± 0.4 under setting [2].
RRNSSSSMSSRLSIYDNVPGSILY [DLC1] registered a protein stability index under setting [1] of 2.75 ± 0.2 and a protein stability index under setting [2] of 2.87 ± 0.45.
Turning to RRQAVAWLVAMHKAAKLLYESRDQ [ZFYVE21], the protein stability index turned out to be 2.29 ± 0.54 under setting [1] and 2.36 ± 0.49 under setting [2].
Consider RRSMKRKALFTCPFNGDCRITKDN [VDR], for which the protein stability index is, setting by setting: under setting [1], 3.29 ± 0.45; under setting [2], 3.48 ± 0.3.
RSLNVFVKEDDKLIFHRHPVAQST [SPSB1] had a protein stability index under setting [1] of 3.15 ± 0.18 and a protein stability index under setting [2] of 3.36 ± 0.26.
Regarding RSQHARKETEFLRLKRTRLGLDDF [STK38L], the protein stability index by setting is: under setting [1], 2.95 ± 0.28; under setting [2], 3.04 ± 0.44.
In the case of RSVQNFRFFASSSLHHTSECTQMD [ALDH8A1], the protein stability index reads like this: under setting [1], 3.14 ± 0.24; under setting [2], 3.29 ± 0.33.
On the same counts, the results for RTERVEQAFRAIDRGDYYLEGYRD [PCMTD1] are 3.77 ± 0.17 and 3.82 ± 0.17.
As to RTIYHMFIAGLCVFIISTLAIDFI [SOAT2], the protein stability index was determined as 3.14 ± 0.56 under setting [1] and 2.96 ± 0.67 under setting [2].
RTSLQYGIMCLKRLNYDRKELEKR [PPFIA4]: the protein stability index is, setting by setting: under setting [1], 2.88 ± 0.45; under setting [2], 2.83 ± 0.29.
In the case of RVGQLQEALNERHSIINALKAKLQ [LRRC45], the protein stability index reads like this: under setting [1], 2.45 ± 0.43; under setting [2], 2.46 ± 0.3.
As for RVQKTSKELEDMNQKLFDLRGKFK [TNNI2], the protein stability index under setting [1] worked out at 3.94 ± 0.25 and the protein stability index under setting [2] came to 4.03 ± 0.3.
Turning to RVVHWYFKLLDKNSSGDIGKKEIK [SMOC2], the protein stability index runs as follows: under setting [1], 2.46 ± 0.97; under setting [2], 2.41 ± 0.4.
